Reference: patent publication US7662384B2, “Use of anti-α5β1 antibodies to inhibit cancer cell proliferation” (Facet Biotech Corporation, priority 2004, dated 2010)

What was measured:
EKVX = assay: M200 in vitro cell proliferation assay; format: cell-based; conditions: EKVX (lung), 4-day assay
Description: (§1) Cancer cell lines were plated at a density of 2500 cells/well in 96-well plates in IMDM with supplements in the presence or absence of 10% FBS. At the time of plating, cells were challenged with various concentrations M200 or a non-function blocking anti-α5 antibody, VC5. Four days later, cell viability was assessed by the CellTiter 96 AQueous Non-Radioactive Cell Proliferation Assay (Promega) according to the manufacturer's instructions. All growth studies were done at least 3 times in triplicate.

CHL-1 = assay: M200 in vitro cell proliferation assay; format: cell-based; conditions: CHL-1 (melanoma), 4-day assay
Description: as §1

HT144 = assay: M200 in vitro cell proliferation assay; format: cell-based; conditions: HT144 (melanoma), 4-day assay
Description: as §1

DU145 = assay: M200 in vitro cell proliferation assay; format: cell-based; conditions: DU145 (prostate), 4-day assay
Description: as §1

C32 = assay: M200 in vitro cell proliferation assay; format: cell-based; conditions: C32 (melanoma), 4-day assay
Description: as §1

786-0 = assay: M200 in vitro cell proliferation assay; format: cell-based; conditions: 786-0 (renal), 4-day assay
Description: as §1

MIA PACA-2 = assay: M200 in vitro cell proliferation assay; format: cell-based; conditions: MIA PACA-2 (pancreas), 4-day assay
Description: as §1

COLO 357 = assay: M200 in vitro cell proliferation assay; format: cell-based; conditions: COLO 357 (pancreas), 4-day assay
Description: as §1

SN12C = assay: M200 in vitro cell proliferation assay; format: cell-based; conditions: SN12C (renal), 4-day assay
Description: as §1

HCT-116 = assay: M200 in vitro cell proliferation assay; format: cell-based; conditions: HCT-116 (colon), 4-day assay
Description: as §1

SW839 = assay: M200 in vitro cell proliferation assay; format: cell-based; conditions: SW839 (renal), 4-day assay
Description: as §1

C8161 = assay: M200 in vitro cell proliferation assay; format: cell-based; conditions: C8161 (melanoma), 4-day assay
Description: as §1

ASPC-1 = assay: M200 in vitro cell proliferation assay; format: cell-based; conditions: ASPC-1 (pancreas), 4-day assay
Description: as §1

UACC-62 = assay: M200 in vitro cell proliferation assay; format: cell-based; conditions: UACC-62 (melanoma), 4-day assay
Description: as §1

rat α5β1 integrin = assay: species cross-reactivity of anti-α5β1 antibody; format: binding
[1] = molecular target: α5β1 integrin binding to fibronectin (Homo sapiens, UniProt P05556+P08648); assay: in vitro activity assay: inhibition of binding of α5β1 to fibronectin; format: biochemical
α5β1 integrin binding to fibronectin, sequence (P08648 42-894 limits assumed): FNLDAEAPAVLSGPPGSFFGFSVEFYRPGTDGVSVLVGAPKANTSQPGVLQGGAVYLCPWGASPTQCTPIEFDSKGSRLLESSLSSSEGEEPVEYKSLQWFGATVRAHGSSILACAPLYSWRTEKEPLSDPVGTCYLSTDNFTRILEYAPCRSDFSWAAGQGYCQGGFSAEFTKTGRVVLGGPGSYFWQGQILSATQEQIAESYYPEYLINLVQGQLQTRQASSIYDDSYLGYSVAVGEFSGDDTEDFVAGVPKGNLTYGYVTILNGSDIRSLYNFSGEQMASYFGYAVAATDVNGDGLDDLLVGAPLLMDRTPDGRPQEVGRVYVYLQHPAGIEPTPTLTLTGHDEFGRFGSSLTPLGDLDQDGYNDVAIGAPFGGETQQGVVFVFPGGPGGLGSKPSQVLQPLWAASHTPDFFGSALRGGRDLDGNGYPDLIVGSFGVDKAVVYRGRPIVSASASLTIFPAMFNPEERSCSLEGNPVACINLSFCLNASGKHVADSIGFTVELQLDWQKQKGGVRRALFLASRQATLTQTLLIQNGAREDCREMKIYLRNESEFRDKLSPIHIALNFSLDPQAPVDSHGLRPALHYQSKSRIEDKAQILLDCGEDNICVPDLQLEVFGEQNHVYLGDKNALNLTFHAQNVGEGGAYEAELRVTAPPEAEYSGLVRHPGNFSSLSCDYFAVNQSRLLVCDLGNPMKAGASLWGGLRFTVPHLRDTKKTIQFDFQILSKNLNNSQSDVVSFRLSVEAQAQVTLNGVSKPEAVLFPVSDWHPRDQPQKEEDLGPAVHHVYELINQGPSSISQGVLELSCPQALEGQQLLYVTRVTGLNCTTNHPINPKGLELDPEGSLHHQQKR
α5β1 integrin binding to fibronectin, sequence (P08648 895-1049 limits assumed): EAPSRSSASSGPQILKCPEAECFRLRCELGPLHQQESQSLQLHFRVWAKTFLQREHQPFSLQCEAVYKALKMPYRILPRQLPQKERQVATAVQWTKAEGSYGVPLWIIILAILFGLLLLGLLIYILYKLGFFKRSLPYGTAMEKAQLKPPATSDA
α5β1 integrin binding to fibronectin, sequence (P05556 21-798): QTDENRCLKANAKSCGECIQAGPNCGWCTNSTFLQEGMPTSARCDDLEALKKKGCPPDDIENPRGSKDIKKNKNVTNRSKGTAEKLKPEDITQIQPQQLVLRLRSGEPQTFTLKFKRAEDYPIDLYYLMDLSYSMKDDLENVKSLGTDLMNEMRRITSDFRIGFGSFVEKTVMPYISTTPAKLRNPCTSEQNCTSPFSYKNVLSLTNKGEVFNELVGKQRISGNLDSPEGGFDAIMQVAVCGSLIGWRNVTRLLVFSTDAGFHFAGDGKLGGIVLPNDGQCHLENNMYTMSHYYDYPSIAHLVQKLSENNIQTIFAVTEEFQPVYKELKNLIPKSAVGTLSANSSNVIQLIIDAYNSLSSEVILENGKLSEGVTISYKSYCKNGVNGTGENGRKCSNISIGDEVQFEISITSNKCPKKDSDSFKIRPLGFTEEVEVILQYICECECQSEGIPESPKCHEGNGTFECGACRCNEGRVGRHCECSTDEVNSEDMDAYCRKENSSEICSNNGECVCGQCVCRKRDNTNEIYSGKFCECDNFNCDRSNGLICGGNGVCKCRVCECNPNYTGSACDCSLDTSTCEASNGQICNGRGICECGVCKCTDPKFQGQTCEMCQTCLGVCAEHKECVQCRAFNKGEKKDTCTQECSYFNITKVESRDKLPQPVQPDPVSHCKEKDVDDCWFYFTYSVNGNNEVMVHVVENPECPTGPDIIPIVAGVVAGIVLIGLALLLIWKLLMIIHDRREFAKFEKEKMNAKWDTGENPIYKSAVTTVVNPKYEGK

B1: M200: chimeric IgG4 anti-α5β1 antibody derived from IIA1; generic name volociximab (antibody, V domains shown)
VH: MAVLGLLLCLVTFPSCVLSQVQLKESGPGLVAPSQSLSITCTISGFSLTDYGVHWVRQPPGKGLEWLVVIWSDGSSTYNSALKSRMTIRKDNSKSQVFLIMNSLQTDDSAMYYCARHGTYYGMTTTGDALDYWGQGTSVTVSS
VL: MDFQVQIFSFLLISASVIMSRGQIVLTQSPAIMSASLGERVTMTCTASSSVSSNYLHWYQQKPGSAPNLWIYSTSNLASGVPARFSGSGSGTSYSLTISSMEAEDAATYYCHQYLRSPPTFGGGTKLEIKDMSVDMSV
modifications: chimeric antibody
notes: chimeric IgG4 anti-α5β1 antibody derived from IIA1; generic name volociximab
EKVX; 10% FBS
  % Growth Inhibition +Serum: 0%
EKVX; absence of serum
  % Growth Inhibition −Serum: 10%
CHL-1; 10% FBS
  % Growth Inhibition +Serum: 0%
CHL-1; absence of serum
  % Growth Inhibition −Serum: 0%
HT144; 10% FBS
  % Growth Inhibition +Serum: 0%
HT144; absence of serum
  % Growth Inhibition −Serum: 0%
DU145; 10% FBS
  % Growth Inhibition +Serum: 0%
DU145; absence of serum
  % Growth Inhibition −Serum: 0%
C32; 10% FBS
  % Growth Inhibition +Serum: 0%
C32; absence of serum
  % Growth Inhibition −Serum: 0%
786-0; 10% FBS
  % Growth Inhibition +Serum: 0%
786-0; absence of serum
  % Growth Inhibition −Serum: 10%
MIA PACA-2; 10% FBS
  % Growth Inhibition +Serum: 0%
MIA PACA-2; absence of serum
  % Growth Inhibition −Serum: 20%
COLO 357; 10% FBS
  % Growth Inhibition +Serum: 0%
COLO 357; absence of serum
  % Growth Inhibition −Serum: 0%
SN12C; 10% FBS
  % Growth Inhibition +Serum: 0%
SN12C; absence of serum
  % Growth Inhibition −Serum: 5%
HCT-116; 10% FBS
  % Growth Inhibition +Serum: 0%
HCT-116; absence of serum
  % Growth Inhibition −Serum: 15%
SW839; 10% FBS
  % Growth Inhibition +Serum: 0%
SW839; absence of serum
  % Growth Inhibition −Serum: 30%
C8161; 10% FBS
  % Growth Inhibition +Serum: 0%
C8161; absence of serum
  % Growth Inhibition −Serum: 0%
ASPC-1; 10% FBS
  % Growth Inhibition +Serum: 0%
ASPC-1; absence of serum
  % Growth Inhibition −Serum: 0%
UACC-62; 10% FBS
  % Growth Inhibition +Serum: 0%
UACC-62; absence of serum
  % Growth Inhibition −Serum: 0%
Rat α5β1 integrin
  cross reaction with rat α5β1 integrin: does not cross react
[1]
  concentration that produces 80% inhibition of binding of α5β1 to fibronectin: 1 µg/mL
